Protein production data for 29 sequences are collected here from a protein production outcome set (Wang et al. 2014).

The series can be described thus: label from the status in PepcDB records.
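Further: failed if final PepcDB status was selected cloned or expressed and not failed if soluble or beyond.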

Consider “EKQSIHRTQLEALDSVITDLETSAQKGISLTEPEIFASLLETCYSLRAIDHGVRVHHLIPPYLLRNNLGISSKLVRLYASCGYAEVAHEVFDRMSKRDSSPFAWNSLISGYAELGQYEDAMALYFQMAEDGVKPDRFTFPRVLKACGGIGSVQIGEAIHRDLVKEGFGYDVYVLNALVVMYAKCGDIVKARNVFDMIPHKDYVSWNSMLTGYLHHGLLHEALDIFRLMVQNGIEPDKVAISSVLARVLSFKHGRQLHGWVIRRGMEWELSVANALIVLYSKRGQLGQACFIFDQMLERDTVSWNAIISAHSKNSNGLKYFEQMHRANAKPDGITFVSVLSLCANTGMVEDGERLFSLMSKEYGIDPKMEHYACMVNLYGRAGMMEEAYSMIVQEMGLEAGPTVWGALLYACYLHGNTDIGEVAAQRLFELEPDNEHNFELLIRIYSKAKRAEDVERVRQMMVDRGLET”, for which the protein production result was “not failed”.

As for “ELGLRSKTNVVSLDKIIIDKKSSLITGFPEFRMVWKVVRQRVVDDLVSVLDTDYLDMELIPNLTRQIAEQSIYSYIENGLKLLIDYAQKEITIDHSSDRDKILMDIGKDPYVVSIKSKVYLQDGRQFQFTESRHKLEKFRFVDFAKRKK”, the protein production result is reported as “not failed”.

“ELHAELVKRQHLETFLKTQIESELVDVYFQPIIETRTGNVVKFEALARFYHENSEYSTQEMISIIEDLELIAALDDVVCQTALKQWSHLQKIYGENIGLSINRSLNTKLDSLQVLQRSLDLIKASDVNPKLVTIELTETAYFEQDEEHAFALEQIRQEGIQIAIDDFGTGYSSFSYLEEGQFDVLKIDRKFVKNIHEGSTSYNIVKTITDLAHKLNVEVVAEGVESQRELEVLAGIGVDYMQGFLFSQA”: the protein production result was “failed”.

For the sequence “ELPKKRELCKFYITGFCARAENCPYMHGDFPCKLYHTTGNCINGDDCMFSHDPLTEETRELLDKMLADDAEAGAEDEKEVEELKK”, the protein production entry is “not failed”.

“EMVLLPAPQIPLIMKIMKNHTPTWLPGVPTLYEKIVAEATAKGVEIKGIRNSFSGASTLPVRTVEDWENLTGGLLVEGYGLTETSPVLCGNPMNGNRRPGYIGVPFPDTEIRIANPDNLDETMPDGEAGEVLARGPQIFQGYLNKPEATAATFHGDWFRTGDMGVMEEDGFIRLVSRIKEIIITGGFNVYPAEVEEALIAHPDVDDAAVVGRPRKDGSEDVVACIVLKDGAALDPEGLKTHCRKLLTRYKVPRTFYHFEALNKDQLGKVRRREVQQTLLERLGEK”: the protein production result is “failed”.

With “ENDVRVETTLHQNTRIYDVRGQLFFSSSERFAKAFDFQENVAHVIIDLTHSHIWDVTTVASLDHIVDKFQKNGIQVTVKGLNEASSIMIEQYGTHSKI”, the protein production result was “failed”.

Regarding “ENPRNVGSLDKTSKNVGTGLVGAPACGDVMKLQIQVDEKGKIVDARFKTFGCGSAIASSSLATEWVKGKTVEEALTIKNTDIAKELCLPPVKLHCSMLAEDAIKAALADYKLKQESK”, the protein production entry is “not failed”.

Consider “EPAHGRQHTPCLFCDRLFASAEETFSHCKLEHQFNIDSMVHKHGLEFYGYIKLINFIRLKNPTVEYMNSIYNPVPWEKDEYLKPVLEDDLLLQFDVEDLYEPVSTPFS”, for which the protein production result was “not failed”.

For the sequence “EPLKDAVLIEGLPGIGHVGRVAAEHIVEEFNGEKVLELYCDDFPPQIVVKNDGTIEYMKNEFYLVKEPVPMVIVLGNTQALSPKGQYVLSEKIVDIAMKYGATKTYTLGGFGIGKISDELKVYVASTSKELSEQHKELGAEFRTDGGSIIGAAGLMLKFSKLKGIEGICLMGETPGYLVDPKSAGNVLEMLSKAIGFEIDMKKLDERAKEMEKFIEKVQMQEQGMQAPQHQDDLSYIG”, the protein production result is “failed”.

Consider “EPNRLIKEKSPYLLQHAYNPVDWYPWGEEAFEKARKENKPVFLSIGYSTCHWCHMMAHESFEDEEVAGLMNEAFVSIKVDREERPDIDNIYMTVCQIILGRGGWPLNIIMTPGKKPFFAGTYIPKNTRFNQIGMLELVPRIKEIWEQQHEEVLDSAEKITSTIQEMIKESSG”, for which the protein production entry was “not failed”.

For “EPVLCSRTTCRAVLNPLCQVDYRAKLWACNFCYQRNQFPPSYAGISELNQPA”, the protein production entry is “not failed”.

As to “EQQADGTWLMDGWISIRKASNLLEHDLVDEAERYSTLGGYLLWQFGYIPAAGEQITVDGLIFEIVSVNKHNIGKVRVHRTQPENE”, the protein production result is “not failed”.

For “EQYEIGVKPPKPANITATYTGGVLTVRVTENGKTLTLTSNVTMPTGTGPFPVVIGMNARTGQLPTNLFNGVIQIPFNHDQVAKYTQGDRDPSYPFFQLYPNLTSNGYYSAWAWGISRLIDGIELVQAQLNADTKRIAVTGCSYAGKMALFAGAFDERIALTIAQESGGGGVNAWRVSETIGNVEKISNTNYAWFMQSLKTNFQNGNAVKLPYDHHELMAMIAPRALLVLGNPPFEWLGDESGYVSSRAAQEVWTTLGVPERFGFSFRGGHDHCSLPSASNAEVTAFVDKFLR”, the protein production result is reported as “failed”.

“ERATPPVEPRQPPEAQPAERIVAERIVQELVRAGANLNNVRTMLRNVMDNNAVAFSRVEWNILLQHFPDMHTNGISSDSVLANELRQTLRQVVHQQRTQRALAPILSPAPSRPVASSSRSSQRTLLGRFTGWMAPRQTSSSSQAT”: the protein production entry is reported as “failed”.

As for “ESEKSFRILFEKSPEGFLILDGGGNILEANPAALGMLGEEMEALQGRGVFELLQGEKIPLKEEEMNQKIERIYENRLGQEVLLETILIPAQVEGKARIFAIWRDVT”, the protein production result was “failed”.

Regarding “ETEDQTNMIAIQADGCYIVDALTPIEDFNERFNAEFPDDDYDTIGGLVTEAIGHLPETGDELTIGRFAFRVAKANARRIHILHVTVLP”, the protein production entry is given as “not failed”.

On to “EYGYEDLRESSNSLLNHQLSEIDQARLYSCLDHMREVLGDAVPDDILTEAILKHKFDVQKALSVVLEQDG”, for which the protein production entry is listed as “not failed”.

“EYISVKSQNELLEASTPHPGTRNHIPQLDVDANELALVYRARGMSEADAEQKAAEAFVNLRNAEDQAIIDEPRNDEPING”: the protein production result is recorded as “failed”.

Turning to “FFTPPHIVQLCVRLVDDFADGMTFHDPTVGSGGMLTEAAKYYREAQGGDPSKLTFTGQEINPDIAAIARMNLSLHTLNGEIERGDSLASPGFTDGDDLERFDRVLANFPFSADWAKDDLQDDQYGRFDWHTKLPRADRGDYAFIMHIAEQLKEPDCGDESGGKAAIVIPHGVLFRKHEQRYRQPMLENDLVEAIVGLPENLFQNNSIPSAILVLNTDKPADREGEVQFIHAADEAFYEELSNQNELTDDGLDHIVENFDDWTTE”, the protein production entry is on record as “failed”.

Turning to “FGLETVSENELAHSEEELRIILSESYKSGEINQSEFKYVNKIFEFDDRLAKEIMIPRTEIVSLPHDIKISEMMDIIQIEKYTRYPVEEGDKDNIIGVINIKEVLTACISGEVSVDSTISQFVNPIIHVIESAPIQDLLVKMQKERVHMAILSDEYGGTAGLVTVEDIIEEIVGEIR”, the protein production entry is reported as “not failed”.

In the case of “FGVWVLVPRSFPRCVWFQRSMAVVIRLQGLPIVAGTMDIRHFFSGLTIPDGGVHIVGGELGEAFIVFATDEDARLGMMRTGGTIKGSKVTLLLSSKTEMQNMIELSRRRFETANLDIPPANASRSGPPPSSGMSSRVNLPTTVSNFNNPSPSVVTATTSVHESNKNIQTFSTASVGTAPPNMGASFGSPTFSSTVPSTASPMNTVPPPPIPPIPAMPSLPPMPSIPPIPVPPPVPTLPPVPPVPPIPPVPSVPPMTPLPPMSGMPPLNPPPVAPLPAGMNGSGAPMNLNNNLNPMFLGPLNPVNPIQMNSQSSVKPLPINPDDLYVSVHGMPFSAMENDVRDFFHGLRVDAVHLLKDHVGRNNGNGLVKFLSPQDTFEALKRNRMLMIQRYVEVSPATERQWVAAGGHITFKQNMGPSGQTHPPPQTLPRSKSPSGQKRSRSRSPHEAGFCVYLKGLPFEAENKHVIDFFKKLDIVEDSIYIAYGPNGKATGEGFVEFRNEADYKAALCRHKQYMGNRFIQVHPITKKGMLEKIDMIRKRLQNFSYDQREMILNPEGDVNSAKVCAHITNIPFSITKMDVLQFLEGIPVDENAVHVLVDNNGQGLGQALVQFKNEDDARKSERLHRKKLNGREAFVHVVTLEDMREIEKNPPAQGKKGLKMPVPGNPAVPGMPNAGLPGVGLPSAGLPGAGLPSTGLPGSAITSAGLPGAGMPSAGIPSAGGEEHAFLTVGSKEANNGPPFNFPGNFGGSNAFGPPIPPPGLGGGAFGDARPGMPSVGNSGLPGLGLDVPGFGGGPNNLSGPSGFGGGPQNFGNGPGSLGGPPGFGSGPPGLGSAPGHLGGPPAFGPGPGPGPGPGPIHIGGPPGFASSSGKPGPTVIKVQNMPFTVSIDEILDFFYGYQVIPGSVCLKYNEKGMPTGEAMVAFESRDEATAAVIDLNDRPIGSRKVKLVLG”, the protein production result is recorded as “not failed”.

Take “FPPGTPLELGKEIAVYRIDGPVFFGAAERFATFLRDEPEVKYLILRLRFVPNMDTTGLVALEDIYHDLERHNCRLILTGLQPEVKQLLERTGLLKTIGLSNCFETTTDAICSISPQIQRCSQP”: the protein production entry is listed as “failed”.

Turning to “FSTFDSKYDRFLRGEEKLTDQEELGRVLISSTQFTNCNTCHEIRGAKGLEDGLFTNHKYFNIGVPANTSVRAVNGSKPDAVDLGLAQNPAVAGDPAQRGKFKVPTLRNVAVTGPYMHNGVFKDLRTVVLFYVKYKSKKPSRQINPETGKTWDAPEVPENIAMTELTSAPALDDKRVDAIVAFLKTLTDRRYEHLLPKEDGQTAAPT”, the protein production entry is “failed”.

Take “FTLEEEDITGTWYVKAMVVDKDFPEDRRPRKVSPVKVTALGGGNLEATFTFMREDRCIQKKILMRKTEEPGKFSAYGGRKLIYLQELPGTDDYVFYCKDQRRGGLRYMGKLVGRNPNTNLEALEEFKKLVQHKGLSEEDIFMPLQTGSCVLEH”: the protein production result is given as “failed”.

As for “FTPDYIFTSKIDTSYVRQDIVPEINGWNIDRWIEEIACNDNQVVKLLWQVINDSMNGNYTRKKAIFFVGDGNNGKGTFQELLSNVIGYSNIASLKVNEFDERFKLSVLEGKTAVIGDDVPVGVYVDDSSNFKSVVTGDPVLVEFKNKPLYRATFKCTVIQSTNGMPKFKDKTGGTLRRLLIVPFNANFNGIKENFKIKEDYIKNQQVLEYVLYKAINLDFET”, the protein production entry is listed as “failed”.

As to “GAPFRSTVTLQPTSGSLVNLTEWPPFVITLDDVELVHFERVQFHLRNFDMIFVFKEYNKKVAMVNAIPMNMLDHVKEWLNSCDIRYSEGVQSLNWQKIMKTITDDP”, the protein production entry is “failed”.

As for “GAPGPCGLARQNSTSLTGKPGALPANLDDMKVAELKQELKLRSLPVSGTKTELIERLRAYQDQISPVPGAPKAPAATSILHKAGEVVVAFPAARLST”, the protein production result is “failed”.

For the sequence “GASDGGGSIRIPASFSGLIGLKPSRGSMPVGPEGWRGWQGASIDFALTISMRDTKALFYGLRGSHSGAPYQAPLAEWQTHPKKQRLKIALCTASPIGSLISPEATQAAKQAADFLAAAGHEIIEIPYPVDGAALIRSYYQMNGAETTAMMNSIQQGLGRPIRKEEIESFSWTMHQFGQKIPAATYVHSLQLWDQAAVTMEELFQKFDLFLSPTTAFSAPKINEDLQSEHIRQRMAQAAELTEAELAELIYDYFDKSLQLTPYTQLANLTGQPAISLPTHVTATGLPLGIQLLAARGREDLLFQVGEQFEQEGK”, the protein production result was “failed”.

On to “GCTLSAEERAALERSKAIEKNLKEDGISAAKDVKLLLLGAGESGKSTIVKQMKIIHEDGFSGEDVKQYKPVVYSNTIQSLAAIVRAMDTLGIEYGDKERKADAKMVCDVVSRMEDTEPFSAELLSAMMRLWGDSGIQECFNRSREYQLNDSAKYYLDSLDRIGAADYQPTEQDILRTRVKTTGIVETHFTFKNLHFRLFDVGGQRSERKKWIHCFEDVTAIIFCVALSGYDQVLHEDETTNRMHESLKLFDSICNNKWFTDTSIILFLNKKDIFEEKIKKSPLTICFPEYTGPSAFTEAVAYIQAQYESKNKSAHKEIYTHVTCATDTNNIQFVFDAVTDVIIAKNLRGCGLY”, for which the protein production entry was “failed”.
